Test results taken from US20100104557A1 (Xencor, published 2010).

T1: His-tagged HM1.24 antigen, residues N49-A163 of the extracellular domain (human, UniProt Q10589 49-163)
T1 construct: Expressed in 293T cells, purified by Ni-NTA; not shown: N-terminal His-tag and Factor Xa cleavage site
T1 sequence: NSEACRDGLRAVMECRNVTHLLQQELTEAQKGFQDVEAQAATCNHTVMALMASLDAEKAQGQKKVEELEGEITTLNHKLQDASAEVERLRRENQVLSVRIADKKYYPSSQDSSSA


What was measured:
[1] = target: T1, His-tagged HM1.24 antigen, residues …; assay: Biacore (SPR): His-tagged HM1.24 antigen coupled directly to the chip (NHS chemistry), antibody as analyte; simultaneous (global Langmuir) fitting
Description: (§1) FIG. 17. Binding of anti-HM1.24 antibodies to HM1.24 antigen monitored by Biacore. In this format, HM1.24 antigen was coupled directly to the chip, and antibodies at multiple concentrations were used as analyte in this format.

[2] = target: T1, His-tagged HM1.24 antigen, residues …; assay: Biacore (SPR): His-tagged HM1.24 antigen coupled directly to the chip (NHS chemistry), antibody as analyte; separate kd and ka fitting
Description: as §1

| koff [1] [s⁻¹] | kon [1] [M⁻¹ s⁻¹] | koff [2] [s⁻¹] | kon [2] [M⁻¹ s⁻¹] | Binder |
| --- | --- | --- | --- | --- |
| 4.03e-05 | 772000 | 5.5e-05 | 863000 | HM1.24_H0L0 IgG1 S239D/I332E (antibody) heavy: not shown light: DIVMTQSHKFMSTSVGDRVSITCKASQDVNTAVAWYQQKPGQSPKLLIYSASNRYTGVPDRITGSGSGTDFTFTISSVQAEDLALYYCQQHYSTPFTFGSGTKLEIKRTVAAPSVFIFPPSDEQLKSGTASVVCLLNNFYPREAKVQWKVDNALQSGNSQESVTEQDSKDSTYSLSSTLTLSKADYEKHKVYACEVTHQGLSSPVTKSFNRGEC |
| 2.03e-05 | 754000 | 4.49e-05 | 782000 | HM1.24_H1L2 (antibody, human IgG1, kappa, V domains shown, also called H1 and L2 combination) VH: QVQLVQSGAEVKKPGASVKVSCKASGYTFTPYWMQWVRQAPGQGLEWMGSIFPGDGDTRYSQSFQGQVTISADKSISTAYMELSRLRSDDTAVYYCARGLRRGGYYFDYWGQGTLVTVSS VL: DIVMTQSPSSLSASVGDRVTITCQASQDVNTAVAWYQQKPDQSPKLLIYSASNRYTGVPDRITGSGSGTDFTLTISSLQAEDVAVYYCQQHYSTPFTFGSGTKLEIKR |
| 7.99e-05 | 1.29e+06 | 9.54e-05 | 1.34e+06 | Antibody comprising the HM1.24_H1.2 heavy chain variant and the HM1.24_L4 light chain (antibody, human IgG1, kappa, V domains shown) VH: QVQLVQSGAEVKKPGASVKVSCKASGYTFTPYWMQWVRQAPGQGLEWMGSIFPGSGDTRYSQSFQGQVTISADKSISTAYMELSRLRSDDTAVYYCARGLRRGGYYFDYWGQGTLVTVSS VL: DIVMTQSPLSLPVTLGQPASISCKASQDVNTAVAWYLQKPGKSPKLLIYSASNRYTGVPDRITGSGSGTDFTLKISRVEAEDVGVYYCQQHYSTPFTFGSGTKLEIKR |

Further lines, the binder ahead of its results:

| Binder | koff [1] [s⁻¹] | kon [1] [M⁻¹ s⁻¹] | koff [2] [s⁻¹] | kon [2] [M⁻¹ s⁻¹] |
| --- | --- | --- | --- | --- |
| HM1.24_H0L0_IgG1_WT (antibody, also called WT anti-HM1.24 antibody; parent HM1.24_H0L0_IgG1 WT antibody) heavy: not shown light: DIVMTQSHKFMSTSVGDRVSITCKASQDVNTAVAWYQQKPGQSPKLLIYSASNRYTGVPDRITGSGSGTDFTFTISSVQAEDLALYYCQQHYSTPFTFGSGTKLEIKRTVAAPSVFIFPPSDEQLKSGTASVVCLLNNFYPREAKVQWKVDNALQSGNSQESVTEQDSKDSTYSLSSTLTLSKADYEKHKVYACEVTHQGLSSPVTKSFNRGEC | 3.57e-05 | 699000 | 4.4e-05 | 820000 |
| HM1.24_H1L4 (antibody, V domains shown, also called H1 and L4 combination; parent H1 antibody) VH: QVQLVQSGAEVKKPGASVKVSCKASGYTFTPYWMQWVRQAPGQGLEWMGSIFPGDGDTRYSQSFQGQVTISADKSISTAYMELSRLRSDDTAVYYCARGLRRGGYYFDYWGQGTLVTVSS VL: DIVMTQSPLSLPVTLGQPASISCKASQDVNTAVAWYLQKPGKSPKLLIYSASNRYTGVPDRITGSGSGTDFTLKISRVEAEDVGVYYCQQHYSTPFTFGSGTKLEIKR | 3.18e-05 | 834000 | 5.53e-05 | 966000 |
